Source: patent publication US20220098289A1 (CONSEJO SUPERIOR DE INVESTIGACIONES CIENT FICAS, published 2022)

Biological target: T1, human Aβ1-42 peptides (human, UniProt P05067 672-713)
T1 construct: domain: Aβ1-42; Synthetic peptide prepared to obtain minimal aggregation; also called Aβ peptides
Assay: recombinant proteins mixed in vitro for 24 hrs at 37° C., then Western blot
Protocol: Protein-protein binding assays. Nanomolar concentrations of recombinant human SFRP1 (RD cat: 5396-SF-025) and human Aβ1-42 peptides (Invitrogen, cat: 03-111, prepared to obtain minimal peptide aggregation) were mixed in protein Lobind tubes (Eppendorf) for 24 hrs at 37° C. NuPAGE LDS sample buffer (4×) was added to the tubes, boiled for 5 min and subjected to Western blot analysis. Microplate-based solid-phase protein-protein binding assays was performed by immobilizing in wells 200 ng/well of either human Aβ1-42 peptides, BSA, used as a […] control because previously described as an Aβ interactor; or heparin, a described SFRP1 binding partner. Immobilization was performed overnight at 4° C. The wells were then washed with TBS 3× and incubated with two different SFRP1 concentrations for 2 hrs at RT. In the converse experiment, BSA, heparin or SFRP1 were immobilized overnight at 4° C. and two different concentrations of Aβ1-42 were added for 2 hrs at RT. The wells were washed 6× in TBS and 2× sample buffer containing β-mercaptoethanol was added to the well. The content was recovered by scrapping, boiled for 5 min and analyzed by SDS-PAGE followed by WB using anti-Sfrp1 or anti-Aβ antibodies, respectively.

T1 sequence (P05067 672-713 limits assumed): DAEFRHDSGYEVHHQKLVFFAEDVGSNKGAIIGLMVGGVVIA

binding result: binds
B1: human recombinant SFRP1 (other, UniProt Q8N474 32-314, looked up)
chain: SEYDYVSFQSDIGPYQSGRFYTKPPQCVDIPADLRLCHNVGYKKMVLPNLLEHETMAEVKQQASSWVPLLNKNCHAGTQVFLCSLFAPVCLDRPIYPCRWLCEAVRDSCEPVMQFFGFYWPEMLKCDKFPEGDVCIAMTPPNATEASKPQGTTVCPPCDNELKSEAIIEHLCASEFALRMKIKEVKKENGDKKIVPKKKKPLKLGPIKKKDLKKLVLYLKNGADCPCHQLDNLSHHFLIMGRKVKSQYLLTAIHKWDKKNKEFKNFMKKMKNHECPTFQSVFK
notes: Bought recombinant protein; also called hSFRP1; recombinant hSFRP1
